Consider 1 molecule from article PMC3715890 (2013).

The target of this test is HIF-1alpha PAS-B (235-350) (Homo sapiens, UniProt Q16665). Briefly: ITC. For orientation: In ITC the heat of successive injections is recorded.
HIF-1alpha PAS-B (235-350), sequence (Q16665 235-350): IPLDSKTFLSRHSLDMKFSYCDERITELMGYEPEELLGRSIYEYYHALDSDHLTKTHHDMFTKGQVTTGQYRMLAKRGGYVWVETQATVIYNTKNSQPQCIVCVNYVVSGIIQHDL

B1: P1 (Tat-cyclo-CLLFVY) (peptide)
chain: cyclo(C(S‑S‑Tat)LLFVY)
Usually Kd stands for a measure of binding affinity in units of concentration. Turning to B1, binding was put at a Kd of 124 nM.
